Assay results from the DeepSol protein solubility set.

Assay: soluble on expression in E. coli; label from the status in PepcDB or PDB records

Soluble on expression in E. coli, not soluble:
MGSDKIHHHHHHAAPSPDAQRVAAYAASHFQQAQIDTLKTLVGYDTRARDGLTPDTDPVFADFKRALGVKARMLGLDVEDNGYVMLISLSPEGAGTDVKKVGVITHGDVQPADPSLWPQSPYELTETADGRLVGRGAEDDKGPIATALYAMKAIKDSGIVLKRRIELLVYMAEESDWEPLKDFLKTYEPADINITLDAEYPVVTGEKGWSQIKLSLPRVMVKVGADTPVLTYFSGGSFASQIPQQASAVIQNTNPELVAALKARAKTLPIKTDFIDEPQGLTIHATGKAAHSSTPEDGINAVAYLAELLSPTADGGIPEWPMTTAAVTVDFLHSLVGTGLYGERFGKLGYSDEFMGPMTLAPTLITEGKEGTDVTLNLRRPVGRTPEALDKLAIAAIHGWQDARGTQVADIETYWGTPMLIDDAPHLETLLGVFGHYTNTAGPKPIAIGGSTNAKLFPNALSFGPAMPGMEYTGHSEYEFITRDQLKLNLEMYTAALVELAMRE
MGSDKIHHHHHHAATVAEATSNPWDNYYIGKIDFKNLSPEAKGSAIYAAVIPDPEAYITKHARKVVETLYFTPEDSIPGIEEIHYTLKEYDGVSAKDGAPPSISIVYSTKWIEKSFANNDTAKVDYETRGVLYHELTHGFQLEPQGIGSYGTNKTFWAMIEGVADAVRYLNGGFTLEDRPKGGHYMDGYRTTGFFLAWLTQTKSPDFLRKFNRSTLEVIPWSFDGGVKYALGNDYDIDSLWKEYMATMGDEA
MGSDKIHHHHHHAAVKKIIEMGQNDNQVMHQLDILTNRFGGRLIGSDAYENAAEWMVREFKSWGLDVQLEEAGTVPVGFNRGPWFGRLLSDNGMILHFATPSYTSGTKGVQRGHAVMEPRNDEEFQQIKGRLNGAWVLISGKNVGWPIDRSASGDSIRAEIKKENNEIMKKNNDLRRRNWENGEKNEMLPYKEFPGLYYKEMCEAGALGFIQSSTVPIRALYDRKMMNDPNTNFDNLPELPDIKLDEHQFAIIEQMVKERRTFELEFDIRNHFKLGPVKYHNVVASIKGSKYPDEYVIISGHLDAFDVATGGIDCGTGIGPMMEAARMIAKSGAKPKRTILFIGFAGEEFGLLGAQAWVKAHKDKLPKIANLFNRDGGPEPPVGISVPQAMYDDFVKISEPIQKIRPDYPFEVKVREPRKRPTRMGGTDASVFAIEGVPTLGFTTEDFKGYDFDYGEIWHTERDLYTKNIPEYQEHTATVTAIIALGVANLDKQLSREGLYTEE
MGSDKIHHHHHHACCQGAASSGNAGKNASRVRIASNDSAKLVPDKALNDASCVLAGLPVDKASGKLYALTRTKEWKNHARYMDQIWNVFRQTAPRLVAFSQTELEDINTRCHTLFYPFGGPDFLFANAFFPEMDTYVLIGLEPAGTAPKVKHPSAETYRLYQNAVSNVLNLSFFNDMDKELANDTIDGVVPIYSLLMARGNRKIVSIQEVWLSETGDLFERKEGDTIRNTCSAGMEVRFFRPGASRLQTLYYFCTDISNEGLQANRPLQAFMDRFDAETTATFVKSASYLMHEPAFSRIRETILQKSSAVVQDDSSIPLSCFDPEVWSVTLYGTFYKPISTFSQYLQPQLRDAYQLGDPNPLNFRIGYARQSNLQVARRK
MGSDKIHHHHHHAELPAGTVIDKANLDKIKSDTFDGHTIASLLTDKLEWQIRNTGLKIPLGHAKPVQLDPKYIEATKKNAGKAQFDEKSREVTGWVAGIPFPEVSQNDPFAGDKLVWNFYYASPEGDVINNKATFLMISGDKGLESTQDWLFERYYMKGRISGDKPVLGDGSILSKTLFVATAPEDIKGVGTFTIRYDSPKLEDSWAYIKSARRTRRLSGGAWMDPVGGLDVLNDDIYVWNARPSWYPKVKLVGRRWILAISDAKLGYNASKKGTPEEWKTVDLSNPPYWNPVQTWQPREVWVIEGTPPAEHPYGKKVVYMDVNYPRVYMGEAYDKKGEFWKFINFHMTPSVGEDGTKYSSSIQGDIIDFKARHASIYLFRGYKLNEAKIKETDMSYSALESIAK
MGSDKIHHHHHHAFCLDNGLGRTPPMGWMSWTAFYCEIDCVKHPTGCINEQLYKDMADQLVSGGYDKVGYKSVHIDDCWSEMERDSHGILVANKTRFPSGMKALAKYMHDRGLKFGIYEDYGTKTCGGYPGSYKHEKVDAQTFAAWDVDYLKLDGCNIDQAMMPIGYPLFEKELNETGRPIMYSCSW
MGSDKIHHHHHHAKNVLKAWLVDNTVTTDDKTDKIFQLETTRSIDKEIILDRMVAKNPGVRRETMALGIELMEEVVAEALMNGESVNTGLFRGVAQFRGVAKQNAWDAATNSIYVSLTQGKALREAIKDTRVDVLGERPTKFYIGSGQDATTRATDFSATAGRNFTLFGKNLTVAGTDPSVGVTLASAATGTVTKIDNDMIVLNEPSRLIILLPASLEDGEYMLTVTTQYRGGGGALLKTPRSTSHTIYIGGAPETGGSTGPPGDSDGDLNENPLG
MGSDKIHHHHHHAKTTTATTTQASVKKQTYTILSSSFYKTAKTYHTKDAKPVVYKAVMGADRPTMTLTAKGKLKAGTTYKVTKQVKVKINAKKSQKYSYVKGQGWVVSSKLTAGKFKAASGVKKTATKYTIVSVTALKKAKTVHTKDARPVVYKAAVAADRPTMTLTTNGKLKAATTYKVTKQAKLKNAAKKTVAFSYVSGHGWVLQRDLTNGQFMNAD
MGSDKIHHHHHHAKTTTQHGNALAAYNVKRYKTVKNRNLFVKRYAFQQSYTNIFQTSPTQISSTKGKAVTFKSNVFLPVTYQRSADWGNPQSEVLTPNGNTLYELITTSSQSTTGRIVRYNLGALRHFGITSTHMDALRRATYDHSVGKLTATDKAILKNVTVGPLFNTGHGQSLARNPKNGQLWFIGKPGAVKSNVQQVSTKTLKPSTKVNFTLKNTVPMGSNLTFDKHGKAYFFTYSNGGWAPKGAVKIYQGTISTKSVHFHLVMQGLRYAPGTKPQSMAYNAKRNRLYFVSDSSLASIPVSKLGKLKASQVEGTNLNGHREFEGLQFTSNGSGYLLVNKGAELMQTTHATF
MGSDKIHHHHHHAQNTASVQEAMANYDYKTVIRLIDEESASPQLLIQKAKALKSLGRTAEALSTLQHIIIELPENQQALVEAAECCRQLSKFNEALGYYRKVMELNPEHIYAHLQYTRLLYNYQRYGDALRESIALARKDSSATVLRLMAESMEGAGMPVESMFCYLSIIRKYPSDYLSVAKLGSIFNTMKDYEGAIALTEAYRRTDSTNVEVNRQNALAYCLRKEYPTAIKRYQDLTARGDSTLLTCYYLGVSYYATKEYYKARDWLLKAKSCQSPGANLLYYLGRSCSKTLWKQEGIGYLNQAIALTIPADSIMERLYSGLADCYRQTKQTRDQIKATKEQYKYAPDKHILLYNLAFLSDKIGDTKATEHYLQAFLRTKSKQNAVLQQPDDDEEEPAPYIDYYKSATNKLESIRKEKFLKGEK
MGSDKIHHHHHHAQQSSGDYYEGLSRKIGFSQMIPPHGLEITYDKTVHIIFPSPVRYVDLGSPNLIAGKADGAENVIRVKATRKHFRSETNMSVITEDGNFYTFNVKYADEPLLLNVEMCDFIHDGESVNHPNNAMEIYLQELAGESPRLVRLIMKSVYMQDKRKVKHVGSKRFGVQYLLKGLYAHGELLYFHTEVKNATHVPFDVDFVTFKIVDKKIVKRTAMQEQVIYPLRAFNYVTRVDGKKNERTVFALPKFTIPDGKKLVVEMYEKQGGRHQSFEVENEDLVRAGTVNELKVR
MGSDKIHHHHHHAQSDGWSPKDHNLIKSVREDGRFLSSYGVVHAMLRNTEPRYAFHRDFSPKEFRKWQKGLRHAMEEIMKFPQIKNSPAPVCIKREQREGYRLEKWEFYPLPKCVSTFLVLIPDNINKPVPAILCIPGSGGNKEGLAGEPGIAPKLNDRYKDPKLTQALNFVKEGYIAVAVDNPAAGEASDLERYTLGSNYDYDVVSRYLLELGWSYLGYASYLDMQVLNWMKTQKHIRKDRIVVSGFSLGTEPMMVLGTLDTSIYAFVYNDFLCQTQERAEVMTMPDKNGRRPFPNSIRHLIPDFWKNFNFPDIVAALAPRPIILTEGGLDRDLDLVRKAYAIVGTPDNVKIYHYKKFSDPDTRKNVEYLPEGLDRNEYFRMVNVDGPNHYFKSELVVPWLRKLLEER
MGSDKIHHHHHHAQTEVLTGVTRGKDYGVVYALPKTQIEIEIKANKVNYKPGEFSKYADRYLRLTNVSAEPEEYWELNSVKVKPVGVPNSEATYFVKLKDKTVAPLMELTEEGLIKSINVPYSSNNAKNAANNAVAPQRKANPRDFLTEEILMASSTAKMAELVAKEIYNIRESKNALLRGQADNMPSDGAQLKIMLDNLNLQEEAMTEMFSGVRNKEEKTFTVRLTPDKEFDNEVAFRFSKKLGIVANNDLAGTPFYISLKDLKTVKIPQEDGKKKKEMEGIAYNVPGQAMVTLTDGKKKLYEGEIPVTQFGIIEYLAPVLFNKNSTIKVYFDPVTGGLLKVDREESK
MGSDKIHHHHHHAQTGASDGSRFGHGEDSIRCLKNISIYTEYVKTNNFKDAYTPWMSVFTEAPKAQVSTYTNGAKILRALIAGEKDAAKQKQYFNELMKVHDQRIQYLDDLNKLVKRDATKGSIIGMKAHDYFTMGGQDMNEAYNMFKEAIELEKENSDYFVLQEFMDAAARKMKSDEAYKEQFIQDYLFASGVADGALKAATKENDKKLLKVAKDNIDAFFINSGVATCDNLQAIYAPKVEQNKTNLDYLKQVISVMQMLNCTEQEAYFAASEAAHAIEPTAETAVGCGYMYYKKGDMDKCIDYFDQAINLEQDPLKKADYAYKTAAILFSKKQLSKAKQYALKSISLDGNNGKPYILIANMYASSPNWSDEAALNKCTYFAVIDKLQKAKSVDPSVAEEANKLIGTYAAHTPKDADLFFLSLKKGDSVTIGGWIGETTTIR
MGSDKIHHHHHHAQTPVEKGLKSINRQAAEAYIGFLADDELQGREAGFHGSRVAARYIASLLKEMGIRPLGESYYQPFDAYRKERQQKGRLEVHPDSIAKLKQVVHQKLSMNNVLGMIPGKKTNEYVIVGAHFDHLGIDPALDGDQIYNGADDNASGVSAVLQIAKAFVVSGQQPERNVIFAFWDGEEKGLLGSKYFVQECPFINQVKGYLNFDMIGRNNQPQNPKHVVYFYTEANPAFGRWLKEDIKKYGLQLEPNYRPWDKPVGGSDNGSFAKAGIPIIWYHTDGHPDYHQPSDHADRLNWDKVVEISKASFLNVWNLANEKDY
MGSDKIHHHHHHATCCAANGEGNCPEGTCRKECTNACNTNNQKNKTMAYSKKYTNADFYKDGKFQQDVAMEAMKDMFAFYDVPFTELMAKDMWVTDFGLGDFENVGMGGIFWINDPEYKYFAHAIYLLPGQMIPEHAHVKTDFPAKHESWMVEKGWVYNFSEVGDETPNAPAIPAGHGPIKSKNFVVQKVGDVLRLKKLETFHFMMAGPEGAIVDEWACYHDNAGLRFTNQKAAL
MGSDKIHHHHHHATSFTDSLDLTQYRNDVKTLASDAFGGRAPLSEGEQLTLDYLEKAFKEMGLKPAFGDSYLQAVPLAKISADQNMQLDIGGLKLANGSEFTARTQRIAEKVSLKNSDVVFVGYGINAPEYGWNDYQGLDVKGKTVIVLVNDPGFATQDPNVFKGNAMTYYGRWTYKYEEAARQGAEAVFIVHETAPAAYGWGVVQNSNTGTKFALVDTNNNQGQVGVMGWVQYEVAQNIFAKAGMNFDNLKQQAAKPNFKALPLKLRATLTLNNTIERAESHNVAALLPGKTRPDEVVMMHAHWDHLGTIIENGKPEILNGAVDNASGVAGVLALARYFKQQAEIAPLERSIIFSAFTAEETGLIGAQHFAQHPSVPTKDIVAFLNIDGMNVGQSVDYILRYGDGVSELEQYLDKAAKAQGRLVKADPRPQNGLMFRSDHFALAQQGVPGLLFMSLGDTDPDYIAHKYHQGADDYDPNWSLAGVSQDLELMAQMLTMLANSRDWPRWIESSDFKAKREQDGRN
MGSDKIHHHHHHATVTDSASTDIGIGFSGHGPGTTPGPLDIQWAPIGLDFSNSNMVNTTAVQAFPETTGTNKYVVVSEKRSNEPTREWSLTAQLSDLTNAGGSETLTGAGLKFDAAVKGYTGTNTPESPGSIVDKGARTATVNASSQSVTAGAAAVPVMKDAGTGGASFLGSTAMEMSNVKLEVPANAAKINQQYSGTLTWSLNDTI
